Among the data in article PMC7990223 are percent of ACE2-expressing (zsGreen1+) cells positive for S1-Fc values, retold here.

The target in one experiment is human ACE2 (human) (UniProt Q9BYF1). Nature of the experiment: flow cytometry on cells.
The target in the next experiment is mouse ACE2 (mouse) (UniProt Q8R0I0). The experiment in a line: flow cytometry on cells.
Sequence of mouse ACE2 (mouse) (Q8R0I0 18-805): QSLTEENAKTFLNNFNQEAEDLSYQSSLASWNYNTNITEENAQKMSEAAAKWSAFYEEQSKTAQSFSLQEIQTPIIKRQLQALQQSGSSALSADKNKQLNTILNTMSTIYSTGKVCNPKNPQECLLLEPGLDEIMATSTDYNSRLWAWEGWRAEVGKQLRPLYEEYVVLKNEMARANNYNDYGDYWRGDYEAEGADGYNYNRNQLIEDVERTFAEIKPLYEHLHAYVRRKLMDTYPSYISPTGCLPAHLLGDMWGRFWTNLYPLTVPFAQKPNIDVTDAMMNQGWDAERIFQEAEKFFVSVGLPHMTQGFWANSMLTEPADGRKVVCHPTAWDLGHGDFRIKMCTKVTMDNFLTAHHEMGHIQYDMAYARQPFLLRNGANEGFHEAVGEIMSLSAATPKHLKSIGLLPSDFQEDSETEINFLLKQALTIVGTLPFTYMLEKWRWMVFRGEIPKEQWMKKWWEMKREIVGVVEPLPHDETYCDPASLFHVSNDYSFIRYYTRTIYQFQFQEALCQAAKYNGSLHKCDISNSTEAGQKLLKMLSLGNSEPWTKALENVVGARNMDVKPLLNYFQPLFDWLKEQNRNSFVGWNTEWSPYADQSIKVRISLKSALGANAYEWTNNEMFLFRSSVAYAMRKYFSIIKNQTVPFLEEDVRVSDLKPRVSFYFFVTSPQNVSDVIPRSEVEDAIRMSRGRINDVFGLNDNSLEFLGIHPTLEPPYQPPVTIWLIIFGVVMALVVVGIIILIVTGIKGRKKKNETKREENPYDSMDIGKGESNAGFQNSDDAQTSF

Sequence of human ACE2 (human) (Q9BYF1 18-805): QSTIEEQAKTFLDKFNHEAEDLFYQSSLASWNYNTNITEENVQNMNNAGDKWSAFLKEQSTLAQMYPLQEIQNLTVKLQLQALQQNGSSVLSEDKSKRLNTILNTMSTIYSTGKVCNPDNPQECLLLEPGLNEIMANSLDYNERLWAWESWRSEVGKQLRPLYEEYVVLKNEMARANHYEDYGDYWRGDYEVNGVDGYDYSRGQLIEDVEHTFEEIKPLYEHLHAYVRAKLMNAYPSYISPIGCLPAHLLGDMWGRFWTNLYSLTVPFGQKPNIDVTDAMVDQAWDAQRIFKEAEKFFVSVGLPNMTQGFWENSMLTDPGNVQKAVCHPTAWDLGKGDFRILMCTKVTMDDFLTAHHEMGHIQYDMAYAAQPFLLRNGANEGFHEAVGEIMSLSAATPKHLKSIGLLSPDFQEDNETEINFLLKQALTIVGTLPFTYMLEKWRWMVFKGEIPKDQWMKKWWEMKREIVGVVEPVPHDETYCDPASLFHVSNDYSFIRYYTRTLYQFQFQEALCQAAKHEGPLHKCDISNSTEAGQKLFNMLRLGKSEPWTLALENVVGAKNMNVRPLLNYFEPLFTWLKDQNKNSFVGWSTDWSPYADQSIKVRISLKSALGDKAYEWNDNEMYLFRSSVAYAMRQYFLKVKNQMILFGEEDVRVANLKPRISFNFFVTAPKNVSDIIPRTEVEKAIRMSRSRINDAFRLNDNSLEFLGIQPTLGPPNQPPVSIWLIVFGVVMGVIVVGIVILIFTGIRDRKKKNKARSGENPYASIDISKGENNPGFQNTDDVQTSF

Turning to “S1 domain of the SARS-CoV spike protein C-terminally fused with Fc (from UniProt P59594 14-667) (Fc fusion)”, the percent of ACE2-expressing (zsGreen1+) cells positive for S1-Fc with human ACE2 (human) is 64%; with mouse ACE2 (mouse) it was 40.4%.
